Source: publication PMC4707517

How the values were obtained:
[1] = target: H1FL (H1 11-193 in Table 1, i.e. residues 1-193) S19C (mouse) (UniProt P10922); test: fluorescence (de)quenching; settings: 150 mM KCl (20 mM KCl for four-way junction and 4WJDNA), room temperature pre-incubation for competition, buffer and pH not given (HI-FI assay, ref 23)
[2] = target: H1 1-121 (delta72) S19C (mouse) (UniProt P10922); test: FRET competition; settings: 150 mM KCl (20 mM KCl for four-way junction and 4WJDNA); room temperature pre-incubation for competition; buffer and pH not given (HI-FI assay, ref 23)
[3] = target: H1 1-96 (delta97) S19C (mouse) (UniProt P10922); test: FRET competition; settings: 150 mM KCl (20 mM KCl for four-way junction and 4WJDNA); room temperature pre-incubation for competition; buffer and pH not given (HI-FI assay, ref 23)
[4] = target: H1FL (H1 11-193 in Table 1, i.e. residues 1-193) S19C (mouse) (UniProt P10922); test: FRET competition; settings: 150 mM KCl (20 mM KCl for four-way junction and 4WJDNA), room temperature pre-incubation for competition, buffer and pH not given (HI-FI assay, ref 23)
[5] = target: H1 1-121 (delta72) S19C (mouse) (UniProt P10922); test: fluorescence (de)quenching; settings: 150 mM KCl (20 mM KCl for four-way junction and 4WJDNA); room temperature pre-incubation for competition; buffer and pH not given (HI-FI assay, ref 23)
[6] = target: H1 1-121 (delta72) S19C (mouse) (UniProt P10922); test: FRET; settings: internal amino-C6-dT; 150 mM KCl (20 mM KCl for four-way junction and 4WJDNA); room temperature pre-incubation for competition; buffer and pH not given (HI-FI assay, ref 23)
[7] = target: H1 1-96 (delta97) S19C (mouse) (UniProt P10922); test: FRET; settings: internal amino-C6-dT; 150 mM KCl (20 mM KCl for four-way junction and 4WJDNA); room temperature pre-incubation for competition; buffer and pH not given (HI-FI assay, ref 23)
[8] = target: H1FL (H1 11-193 in Table 1, i.e. residues 1-193) S19C (mouse) (UniProt P10922); test: FRET; settings: internal amino-C6-dT; 150 mM KCl (20 mM KCl for four-way junction and 4WJDNA); room temperature pre-incubation for competition; buffer and pH not given (HI-FI assay, ref 23)
[9] = histone variant H2A.Z, mouse histones

Substance 4WJDNA linear 30 bp has a Kd [1] of 3.75 nM.
In the case of “CGAGCCAGGCCTGAGAATCCGGTGCCGAGGCCGCTCAATTGGTCGTAGACAGCTCTAGCACCGCTTAAACGCACGTACGCGCTGTCCCCCGCGTTTTAACCGCCAAGGGGATTACTCCCTAGTCTCCAGGCACGTGTCAGATATATACATCCAGGCCTTGTGTCG (double strand) [S7/11 nucleosome]”, the Kd [2] is reported as 3.26 nM, the Kd [3] is reported as 73.6 nM and the Kd [4] is reported as 1.73 nM.
Substance 4WJ15 four-way junction has a Kd [1] of 0.035 nM.
In the case of “ATCCCTATACGCGGCCGCCCTGGAGAATCCCGGTGCCGAGGCCGCTCAATTGGTCGTAGACAGCTCTAGCACCGCTTAAACGCACGTACGCGCTGTCCCCCGCGTTTTAACCGCCAAGGGGATTACTCCCTAGTCTCCAGGCACGTGTCAGATATATACATCCGAT (double strand) [A18/1 nucleosome]”, the Kd [2] is reported as 8.08 nM, the Kd [3] is reported as 208 nM and the Kd [4] is reported as 0.135 nM.
LE-Tri trinucleosome showed a Kd [5] of 0.047 nM and a Kd ([1]; stoichiometry 3 H1 per trimer) of 0.046 nM.
In the case of “AGGCCTGAGAATCCGGTGCCGAGGCCGCTCAATTGGTCGTAGACAGCTCTAGCACCGCTTAAACGCACGTACGCGCTGTCCCCCGCGTTTTAACCGCCAAGGGGATTACTCCCTAGTCTCCAGGCACGTGTCAGATATATACATCCAGGCCTTGTGTC (double strand) [A1/10 nucleosome]”, the Kd [2] is reported as 43.8 nM and the Kd [3] is reported as 140 nM.
Substance NLE-Tri-H2A.Z trinucleosome has a Kd [1, 9] of 0.023 nM.
Work on “GATCTAATACTAGGACCCTATACGCGGCCGCATCGGAGAATCCCGGTGCCGAGGCCGCTCAATTGGTCGTAGACAGCTCTAGCACCGCTTAAACGCACGTACGCGCTGTCCCCCGCGTTTTAACCGCCAAGGGGATTACTCCCTAGTCTCCAGGCACGTGTCAGATATATACATCGATTGCATGTGGATCCGAATTCATATTAATGAT (double strand) [S31/30 nucleosome]” yielded a Kd [6] of 0.983 nM, a Kd [7] of 86.3 nM and a Kd [8] of 0.0484 nM.
NLE-Tri trinucleosome gave a Kd [5] of 0.0638 nM and a Kd ([1]; stoichiometry 1 H1 per trimer) of 0.042 nM.
“CGCATCGGAGAATCCCGGTGCCGAGGCCGCTCAATTGGTCGTAGACAGCTCTAGCACCGCTTAAACGCACGTACGCGCTGTCCCCCGCGTTTTAACCGCCAAGGGGATTACTCCCTAGTCTCCAGGCACGTGTCAGATATATACATCGATTGCATGTGGATCCGAATTCATATTAATGAT (double strand) [A3/30 nucleosome]” was tested, and the Kd [6] was 10.4 nM, the Kd [7] was 248 nM and the Kd [8] was 0.112 nM.
Substance “ATCTAATACTAGGACCCTATACGCGGCCGCATCGGAGAATCCCGGTGCCGAGGCCGCTCAATTGGTCGTAGACAGCTCTAGCACCGCTTAAACGCACGTACGCGCTGTCCCCCGCGTTTTAACCGCCAAGGGGATTACTCCCTAGTCTCCAGGCACGTGTCAGATATATACATCGATTGCATGTGGATCCGAATTCATATTAATGAT (double strand) [S30/30-H2A.Z nucleosome]” has a Kd [1, 9] of 0.051 nM.
“ATCTAATACTAGGACCCTATACGCGGCCGCATCGGAGAATCCCGGTGCCGAGGCCGCTCAATTGGTCGTAGACAGCTCTAGCACCGCTTAAACGCACGTACGCGCTGTCCCCCGCGTTTTAACCGCCAAGGGGATTACTCCCTAGTCTCCAGGCACGTGTCAGATATATACATCGATTGCATGTGGATCCGAATTCATATTAATGAT (double strand) [S30/30 nucleosome]” showed a Kd [2] of 1.85 nM, a Kd [3] of 124 nM and a Kd [4] of 0.0177 nM. It also gave an IC50 ([4]; competitor of S31/30 (10 nM), 1 nM H1) of 3.7 nM and a Kd [1] of 0.039 nM.
Substance “TCGGGATACGCGGCCGCCCTGGAGAATCCCGGTGCCGAGGCCGCTCAATTGGTCGTAGACAGCTCTAGCACCGCTTAAACGCACGTACGCGCTGTCCCCCGCGTTTTAACCGCCAAGGGGATTACTCCCTAGTCTCCAGGCACGTGTCAGATATATACATCCTGTGCATGTATTGAC (double strand) [S17/13 nucleosome]” has a Kd [2] of 0.947 nM, a Kd [3] of 26.5 nM and a Kd [4] of 0.23 nM.
